± gives the standard deviation of the averaged measurements.
B1: library; a variant is named by its letters at N, in order (parent)
chain: GCUGUCACCGGUGUAUUACCCUAGUGGUCGACCGGUCUGAUGAGUCUNNNNNNAGACGAAACAGC

Key:
hypoxanthine [1] = variants of: B1; assay: FACS-Seq fitted mean relative fluorescence mCherry/BFP without ligand (log10 relative fluorescence); ligand: hypoxanthine (xanthine aptamer); higher = higher reporter protein expression; details: HEK293T, ligand present: no
How it was run: (§1)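 Fluorescence figures are normalized fitted normal means of sequenced bin counts. Enriched, lentivirally transduced HEK293T libraries with a ribozyme-switch mCherry reporter and EF1α-BFP were held 48 h with or without ligand, then sorted into 6 mCherry/BFP bins. PCR-amplified, barcoded genomic DNA from each bin was sequenced on MiSeq. Means of log10(mCherry/BFP) were scaled to five spiked-in control ribozymes.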

hypoxanthine [2] = variants of: B1; assay: normalized RNA/DNA level with ligand (relative to sTRSVctl = 100) (log10 (% of sTRSVctl)); ligand: hypoxanthine (xanthine aptamer); higher = less ribozyme self-cleavage, higher mRNA level; details: ligand concentration (+) RNA-Seq: 5 mM, HEK293T, reporter: mCherry (pCS4076), ligand present: yes
Description: (§2)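 Hammerhead (sTRSV) ribozyme switch libraries with a ligand aptamer grafted on stem I and a randomized N4-6 loop II, cloned into the 3' UTR of mCherry and transiently transfected into HEK293T cells; RNA-Seq 72 h post transfection with ligand added 1 h before transfection; RNA read count / plasmid DNA read count normalized to the non-cleaving sTRSVctl (x100), log10; sequences with >100 DNA reads. FACS-Seq: lentiviral library sorted into 6 bins after 48 h ligand, log-normal fit mean of mCherry/BFP scaled to controls. Printed sequences are partial switch sequences.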

hypoxanthine [3] = variants of: B1; assay: normalized RNA/DNA level without ligand (relative to sTRSVctl = 100) (log10 (% of sTRSVctl)); ligand: hypoxanthine (xanthine aptamer); higher = less ribozyme self-cleavage, higher mRNA level; details: HEK293T, reporter: mCherry (pCS4076), ligand present: no
Description: as §2

hypoxanthine [4] = variants of: B1; assay: FACS-Seq fitted mean relative fluorescence mCherry/BFP with ligand (log10 relative fluorescence); ligand: hypoxanthine (xanthine aptamer); ligand concentration (+) FACS-Seq: 5 mM; higher = higher reporter protein expression; details: HEK293T, ligand present: yes
How it was run: as §1

| Variant | FACS-Seq fitted mean (log10) (hypoxanthine [1]) | normalized RNA/DNA level with ligand (log10) (hypoxanthine [2]) | normalized RNA/DNA level without ligand (log10) (hypoxanthine [3]) | FACS-Seq fitted mean (log10) (hypoxanthine [4]) |
| --- | --- | --- | --- | --- |
| CCGGUG | 0.264 ± 0.0078 | 1.87 ± 0.087 | 1.45 ± 0.044 | 0.594 ± 0.0013 |
| GCUUGG | -0.174 ± 0.029 | 1.83 ± 0.036 | 1.374 ± 0.0045 | 0.326 ± 0.038 |
| GCUUGA | 0.378 ± 0.011 | 1.924 ± 0.018 | 1.817 ± 0.0041 | 0.53 ± 0.017 |
| GCGGAG | -0.112 ± 0.056 | 1.66 ± 0.054 | 1.24 ± 0.052 | 0.449 ± 0.1 |
| GCGGAU | 0.308 ± 0.01 | 1.863 ± 0.0028 | 1.48 ± 0.039 | 0.547 ± 0.08 |
| GCUACC | 0.407 ± 0.037 | 1.91 ± 0.07 | 1.76 ± 0.024 | 0.599 ± 0.028 |
| GCUACG | 0.064 ± 0.029 | 1.95 ± 0.078 | 1.517 ± 0.015 | 0.42 ± 0.0069 |
| UCUUUA | 0.261 ± 0.0068 | 1.958 ± 0.004 | 1.9 ± 0.085 | 0.327 ± 0.02 |
| UCGGUA | 0.215 ± 0.024 | 1.912 ± 0.014 | 1.562 ± 0.014 | 0.485 ± 0.04 |
| UGAAAC | -0.0117 ± 0.11 | 1.91 ± 0.027 | 1.81 ± 0.059 | 0.2594 ± 0.0017 |
| UCUUGA | 0.296 ± 0.011 | 1.94 ± 0.035 | 1.51 ± 0.036 | 0.572 ± 0.0065 |
| GGAACG | 0.254 ± 0.083 | 1.88 ± 0.072 | 1.503 ± 0.015 | 0.597 ± 0.098 |
| UCGUGG | 0.572 ± 0.0094 | 1.9 ± 0.024 | 1.593 ± 0.0033 | 0.819 ± 0.066 |
| UCGUGC | 0.446 ± 0.039 | 1.953 ± 0.016 | 1.78 ± 0.072 | 0.686 ± 0.013 |
| UCGUGA | 0.414 ± 0.036 | 1.84 ± 0.022 | 1.27 ± 0.039 | 0.578 ± 0.16 |
| GCGGUG | 0.212 ± 0.007 | 1.79 ± 0.053 | 1.41 ± 0.097 | 0.623 ± 0.019 |
| GCGGUA | 0.439 ± 0.019 | 1.943 ± 0.0021 | 1.68 ± 0.036 | 0.677 ± 0.034 |
| GCGGUC | 0.327 ± 0.046 | 1.878 ± 0.015 | 1.5197 ± 0.00012 | 0.644 ± 0.063 |
| UCGUAG | 0.444 ± 0.042 | 1.88 ± 0.031 | 1.5605 ± 0.0013 | 0.642 ± 0.051 |
| GCUUCG | 0.0523 ± 0.089 | 1.929 ± 0.006 | 1.59 ± 0.029 | 0.504 ± 0.069 |
| ACUGCG | 0.125 ± 0.0038 | 1.92 ± 0.03 | 1.458 ± 0.013 | 0.557 ± 0.019 |
| ACUGCA | 0.637 ± 0.031 | 1.96 ± 0.028 | 1.83 ± 0.074 | 0.478 ± 0.012 |
| CCUUGC | 0.165 ± 0.04 | 1.95 ± 0.082 | 1.86 ± 0.027 | -0.0481 ± 0.064 |
| AGAACC | 0.228 ± 0.048 | 1.937 ± 0.014 | 1.87 ± 0.022 | 0.264 ± 0.055 |

| Variant | FACS-Seq fitted mean (log10) (hypoxanthine [1]) | normalized RNA/DNA level with ligand (log10) (hypoxanthine [2]) | normalized RNA/DNA level without ligand (log10) (hypoxanthine [3]) | FACS-Seq fitted mean (log10) (hypoxanthine [4]) |
| --- | --- | --- | --- | --- |
| AGAACG | 0.48 ± 0.04 | 1.833 ± 0.015 | 1.436 ± 0.0026 | 0.756 ± 0.08 |
| GCGUUG | 0.142 ± 0.042 | 1.78 ± 0.034 | 1.3 ± 0.027 | 0.658 ± 0.021 |
| GCGUUA | 0.535 ± 0.018 | 1.94 ± 0.037 | 1.65 ± 0.073 | 0.594 ± 0.022 |
| GCUGAU | 0.294 ± 0.021 | 1.97 ± 0.029 | 1.776 ± 0.014 | 0.376 ± 0.054 |
| GCUGAA | 0.332 ± 0.011 | 1.91 ± 0.032 | 1.76 ± 0.038 | 0.43 ± 0.092 |
| UCUAGA | 0.927 ± 0.07 | 1.91 ± 0.028 | 1.69 ± 0.056 | 0.0154 ± 0.086 |
| UCUAGC | 0.834 ± 0.0096 | 1.95 ± 0.023 | 1.85 ± 0.032 | 0.666 ± 0.062 |
| ACUAUA | 0.701 ± 0.099 | 1.89 ± 0.039 | 1.823 ± 0.017 | 0.693 ± 0.019 |
| GCGGGG | 0.17 ± 0.0079 | 1.96 ± 0.031 | 1.56 ± 0.026 | 0.433 ± 0.03 |
| GCGGGA | 0.182 ± 0.017 | 1.97 ± 0.034 | 1.718 ± 0.012 | 0.591 ± 0.025 |
| GCGGGU | 0.731 ± 0.07 | 1.97 ± 0.048 | 1.83 ± 0.016 | 0.735 ± 0.05 |
| UCUCUG | 0.0437 ± 0.023 | 1.77 ± 0.022 | 1.3 ± 0.032 | 0.522 ± 0.028 |
| UCUCUA | 0.399 ± 0.023 | 1.94 ± 0.058 | 1.743 ± 0.0054 | 0.493 ± 0.055 |
| UCGGAG | -0.494 ± 0.057 | 1.8831 ± 0.00053 | 1.41 ± 0.064 | -0.522 ± 0.082 |
| GCGUGU | 0.0904 ± 0.007 | 1.84 ± 0.049 | 1.42 ± 0.039 | 0.45 ± 0.049 |
| GCGUGA | 0.278 ± 0.054 | 1.82 ± 0.048 | 1.4 ± 0.017 | 0.618 ± 0.062 |
| GCGUGG | 0.196 ± 0.064 | 1.6355 ± 0.0011 | 1.13 ± 0.019 | 0.684 ± 0.047 |
| UCUAUC | 0.701 ± 0.082 | 2.046 ± 0.019 | 2 ± 0.023 | 0.59 ± 0.08 |
| UCUAUG | 0.305 ± 0.056 | 1.906 ± 0.008 | 1.74 ± 0.019 | 0.426 ± 0.018 |
| CCUGCG | -0.205 ± 0.019 | 1.98 ± 0.015 | 1.86 ± 0.0037 | -0.2206 ± 0.00099 |
| UCUGGA | 0.147 ± 0.0055 | 1.85 ± 0.043 | 1.6 ± 0.031 | 0.462 ± 0.029 |
| UCUGGG | 0.132 ± 0.074 | 1.97 ± 0.055 | 1.8 ± 0.04 | 0.368 ± 0.054 |
| UCUGGC | 0.393 ± 0.029 | 1.94 ± 0.0059 | 1.87 ± 0.044 | 0.508 ± 0.055 |
| ACUCAU | 0.604 ± 0.014 | 1.95 ± 0.042 | 1.84 ± 0.026 | 0.7156 ± 0.0036 |

| Variant | FACS-Seq fitted mean (log10) (hypoxanthine [1]) | normalized RNA/DNA level with ligand (log10) (hypoxanthine [2]) | normalized RNA/DNA level without ligand (log10) (hypoxanthine [3]) | FACS-Seq fitted mean (log10) (hypoxanthine [4]) |
| --- | --- | --- | --- | --- |
| ACUCUU | 0.342 ± 0.07 | 1.95 ± 0.029 | 1.84 ± 0.056 | 0.517 ± 0.056 |
| ACUCUG | 0.335 ± 0.0076 | 1.89 ± 0.054 | 1.516 ± 0.0021 | 0.677 ± 0.02 |
| ACUCUA | 0.438 ± 0.061 | 1.947 ± 0.0039 | 1.86 ± 0.055 | 0.585 ± 0.062 |
| CGAACC | 0.676 ± 0.041 | 1.94 ± 0.035 | 1.89 ± 0.02 | 0.635 ± 0.062 |
| GCUCAA | 0.9407 ± 0.005 | 1.92 ± 0.041 | 1.71 ± 0.076 | 0.495 ± 0.11 |
| ACUAGA | 0.305 ± 0.02 | 1.919 ± 0.0065 | 1.73 ± 0.032 | 0.429 ± 0.0044 |
| ACUAGG | 0.706 ± 0.049 | 1.8318 ± 0.00012 | 1.424 ± 0.009 | 0.657 ± 0.03 |
| ACUACG | 0.398 ± 0.086 | 1.93 ± 0.071 | 1.471 ± 0.0099 | 0.666 ± 0.077 |
| ACUACU | 0.265 ± 0.031 | 1.93 ± 0.069 | 1.821 ± 0.01 | 0.443 ± 0.046 |
| ACGUUG | -0.189 ± 0.0052 | 1.79 ± 0.033 | 1.28 ± 0.019 | 0.488 ± 0.021 |
| GCGUAG | -0.175 ± 0.014 | 1.566 ± 0.0039 | 1.15 ± 0.062 | 0.539 ± 0.027 |
| GCGUAU | 0.549 ± 0.031 | 1.83 ± 0.037 | 1.49 ± 0.046 | 0.824 ± 0.043 |
| GCGUAC | -0.0412 ± 0.02 | 1.82 ± 0.069 | 1.33 ± 0.025 | 0.4627 ± 0.0021 |
| CCGUGG | 0.237 ± 0.043 | 1.823 ± 0.0069 | 1.23 ± 0.16 | 0.718 ± 0.053 |
| CCGUGU | 0.225 ± 0.038 | 1.89 ± 0.12 | 1.69 ± 0.017 | 0.616 ± 0.025 |
| CCGUGA | 0.311 ± 0.044 | 1.973 ± 0.0073 | 1.565 ± 0.012 | 0.64 ± 0.017 |
| ACUGUG | 0.119 ± 0.026 | 1.85 ± 0.033 | 1.42 ± 0.069 | 0.0877 ± 0.23 |
| UCUCAG | 0.173 ± 0.045 | 1.82 ± 0.061 | 1.34 ± 0.038 | 0.474 ± 0.094 |
| GCUUUG | -0.186 ± 0.032 | 1.91 ± 0.048 | 1.56 ± 0.018 | 0.36 ± 0.05 |
| GCUUUA | 0.789 ± 0.044 | 1.8872 ± 0.00046 | 1.93 ± 0.027 | 0.795 ± 0.071 |
| GCUUUC | 0.909 ± 0.14 | 1.959 ± 0.011 | 1.835 ± 0.016 | 0.723 ± 0.024 |
| GCUGUG | 0.345 ± 0.079 | 1.93 ± 0.025 | 1.76 ± 0.022 | 0.539 ± 0.081 |
| UGAACU | -0.346 ± 0.014 | 1.913 ± 0.013 | 1.89 ± 0.0097 | 0.000122 ± 0.018 |
| UGAACA | 0.901 ± 0.04 | 1.955 ± 0.014 | 1.86 ± 0.027 | 0.802 ± 0.072 |
